The numbers were not newly measured in paper PMC6620384, which cites them from elsewhere.

The data set concerns the target UNC5B-Fc (UniProt Q8IZJ1). The data set can be described thus: SPR. For orientation: In SPR one partner is held on a chip, and binding of the other changes the refractive index at the surface.
Sequence of UniProt Q8IZJ1 (Q8IZJ1 27-377): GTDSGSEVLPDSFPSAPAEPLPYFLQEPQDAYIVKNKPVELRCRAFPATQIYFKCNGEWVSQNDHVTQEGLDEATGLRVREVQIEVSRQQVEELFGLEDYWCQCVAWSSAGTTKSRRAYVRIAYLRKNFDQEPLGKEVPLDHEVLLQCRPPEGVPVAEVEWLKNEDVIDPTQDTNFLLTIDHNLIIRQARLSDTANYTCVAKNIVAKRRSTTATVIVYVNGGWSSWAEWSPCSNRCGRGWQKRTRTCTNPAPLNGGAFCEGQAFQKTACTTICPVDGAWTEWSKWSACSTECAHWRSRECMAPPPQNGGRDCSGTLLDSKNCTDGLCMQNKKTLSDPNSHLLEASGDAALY

What is called Kd is the equilibrium constant for the complex coming apart. For Robo4-Fc (from UniProt Q8WZ75), the Kd is 0.012 µM.
